Reference: publication PMC12416549 (2024)

T1: TNFR1 (Homo sapiens, UniProt P19438)
T1 chain: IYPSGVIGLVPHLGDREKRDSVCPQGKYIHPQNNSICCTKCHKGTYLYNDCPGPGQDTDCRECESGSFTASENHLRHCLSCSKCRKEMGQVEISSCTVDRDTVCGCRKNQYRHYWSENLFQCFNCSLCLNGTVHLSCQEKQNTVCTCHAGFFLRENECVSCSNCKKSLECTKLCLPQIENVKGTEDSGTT


Target: T1, TNFR1
Assay: yeast display SC50

Binder | apparent Kd (screen)
A15D (designed binder) MTLQELLREEALRRDEAEAFRYALELLAEKFPEQKEYLLDLAEEIESQIRSLSGVDVEDVRKFLDKEWAWVKELLAEHPAELAEVEAARAARLAELRAEVEAKVAA | 0.718 nM
L27M (designed binder) MTLQELLREEALRRAEAEAFRYALELMAEKFPEQKEYLLDLAEEIESQIRSLSGVDVEDVRKFLDKEWAWVKELLAEHPAELAEVEAARAARLAELRAEVEAKVAA | 0.593 nM
A83H (designed binder) MTLQELLREEALRRAEAEAFRYALELLAEKFPEQKEYLLDLAEEIESQIRSLSGVDVEDVRKFLDKEWAWVKELLAEHPAELHEVEAARAARLAELRAEVEAKVAA | 0.539 nM
L27G (designed binder) MTLQELLREEALRRAEAEAFRYALELGAEKFPEQKEYLLDLAEEIESQIRSLSGVDVEDVRKFLDKEWAWVKELLAEHPAELAEVEAARAARLAELRAEVEAKVAA | 0.539 nM
K35A (designed binder) MTLQELLREEALRRAEAEAFRYALELLAEKFPEQAEYLLDLAEEIESQIRSLSGVDVEDVRKFLDKEWAWVKELLAEHPAELAEVEAARAARLAELRAEVEAKVAA | 1.27 nM
P79I (designed binder) MTLQELLREEALRRAEAEAFRYALELLAEKFPEQKEYLLDLAEEIESQIRSLSGVDVEDVRKFLDKEWAWVKELLAEHIAELAEVEAARAARLAELRAEVEAKVAA | 0.653 nM
A105Y (designed binder) MTLQELLREEALRRAEAEAFRYALELLAEKFPEQKEYLLDLAEEIESQIRSLSGVDVEDVRKFLDKEWAWVKELLAEHPAELAEVEAARAARLAELRAEVEAKVYA | 0.79 nM
A11S (designed binder) MTLQELLREESLRRAEAEAFRYALELLAEKFPEQKEYLLDLAEEIESQIRSLSGVDVEDVRKFLDKEWAWVKELLAEHPAELAEVEAARAARLAELRAEVEAKVAA | 0.956 nM
L6G (designed binder) MTLQEGLREEALRRAEAEAFRYALELLAEKFPEQKEYLLDLAEEIESQIRSLSGVDVEDVRKFLDKEWAWVKELLAEHPAELAEVEAARAARLAELRAEVEAKVAA | 22.2 nM
D59A (designed binder) MTLQELLREEALRRAEAEAFRYALELLAEKFPEQKEYLLDLAEEIESQIRSLSGVDVEAVRKFLDKEWAWVKELLAEHPAELAEVEAARAARLAELRAEVEAKVAA | 0.539 nM
E73H (designed binder) MTLQELLREEALRRAEAEAFRYALELLAEKFPEQKEYLLDLAEEIESQIRSLSGVDVEDVRKFLDKEWAWVKHLLAEHPAELAEVEAARAARLAELRAEVEAKVAA | 0.539 nM
L6I (designed binder) MTLQEILREEALRRAEAEAFRYALELLAEKFPEQKEYLLDLAEEIESQIRSLSGVDVEDVRKFLDKEWAWVKELLAEHPAELAEVEAARAARLAELRAEVEAKVAA | 0.539 nM
V60L (designed binder) MTLQELLREEALRRAEAEAFRYALELLAEKFPEQKEYLLDLAEEIESQIRSLSGVDVEDLRKFLDKEWAWVKELLAEHPAELAEVEAARAARLAELRAEVEAKVAA | 0.593 nM
A11P (designed binder) MTLQELLREEPLRRAEAEAFRYALELLAEKFPEQKEYLLDLAEEIESQIRSLSGVDVEDVRKFLDKEWAWVKELLAEHPAELAEVEAARAARLAELRAEVEAKVAA | 2.25 nM
R13D (designed binder) MTLQELLREEALDRAEAEAFRYALELLAEKFPEQKEYLLDLAEEIESQIRSLSGVDVEDVRKFLDKEWAWVKELLAEHPAELAEVEAARAARLAELRAEVEAKVAA | 1.69 nM
A88H (designed binder) MTLQELLREEALRRAEAEAFRYALELLAEKFPEQKEYLLDLAEEIESQIRSLSGVDVEDVRKFLDKEWAWVKELLAEHPAELAEVEAHRAARLAELRAEVEAKVAA | 0.49 nM
W70A (designed binder) MTLQELLREEALRRAEAEAFRYALELLAEKFPEQKEYLLDLAEEIESQIRSLSGVDVEDVRKFLDKEWAAVKELLAEHPAELAEVEAARAARLAELRAEVEAKVAA | 22.2 nM

Binder | apparent Kd (screen)
V71F (designed binder) MTLQELLREEALRRAEAEAFRYALELLAEKFPEQKEYLLDLAEEIESQIRSLSGVDVEDVRKFLDKEWAWFKELLAEHPAELAEVEAARAARLAELRAEVEAKVAA | 1.69 nM
W68H (designed binder) MTLQELLREEALRRAEAEAFRYALELLAEKFPEQKEYLLDLAEEIESQIRSLSGVDVEDVRKFLDKEHAWVKELLAEHPAELAEVEAARAARLAELRAEVEAKVAA | 2.73 nM
E99D (designed binder) MTLQELLREEALRRAEAEAFRYALELLAEKFPEQKEYLLDLAEEIESQIRSLSGVDVEDVRKFLDKEWAWVKELLAEHPAELAEVEAARAARLAELRADVEAKVAA | 0.539 nM
L82G (designed binder) MTLQELLREEALRRAEAEAFRYALELLAEKFPEQKEYLLDLAEEIESQIRSLSGVDVEDVRKFLDKEWAWVKELLAEHPAEGAEVEAARAARLAELRAEVEAKVAA | 1.54 nM
V60E (designed binder) MTLQELLREEALRRAEAEAFRYALELLAEKFPEQKEYLLDLAEEIESQIRSLSGVDVEDERKFLDKEWAWVKELLAEHPAELAEVEAARAARLAELRAEVEAKVAA | 4.39 nM
R92P (designed binder) MTLQELLREEALRRAEAEAFRYALELLAEKFPEQKEYLLDLAEEIESQIRSLSGVDVEDVRKFLDKEWAWVKELLAEHPAELAEVEAARAAPLAELRAEVEAKVAA | 2.25 nM
L7E (designed binder) MTLQELEREEALRRAEAEAFRYALELLAEKFPEQKEYLLDLAEEIESQIRSLSGVDVEDVRKFLDKEWAWVKELLAEHPAELAEVEAARAARLAELRAEVEAKVAA | 15.2 nM
A102I (designed binder) MTLQELLREEALRRAEAEAFRYALELLAEKFPEQKEYLLDLAEEIESQIRSLSGVDVEDVRKFLDKEWAWVKELLAEHPAELAEVEAARAARLAELRAEVEIKVAA | 0.956 nM
R50A (designed binder) MTLQELLREEALRRAEAEAFRYALELLAEKFPEQKEYLLDLAEEIESQIASLSGVDVEDVRKFLDKEWAWVKELLAEHPAELAEVEAARAARLAELRAEVEAKVAA | 0.539 nM
V104F (designed binder) MTLQELLREEALRRAEAEAFRYALELLAEKFPEQKEYLLDLAEEIESQIRSLSGVDVEDVRKFLDKEWAWVKELLAEHPAELAEVEAARAARLAELRAEVEAKFAA | 0.539 nM
E16C (designed binder) MTLQELLREEALRRACAEAFRYALELLAEKFPEQKEYLLDLAEEIESQIRSLSGVDVEDVRKFLDKEWAWVKELLAEHPAELAEVEAARAARLAELRAEVEAKVAA | 0.593 nM
A91C (designed binder) MTLQELLREEALRRAEAEAFRYALELLAEKFPEQKEYLLDLAEEIESQIRSLSGVDVEDVRKFLDKEWAWVKELLAEHPAELAEVEAARACRLAELRAEVEAKVAA | 0.593 nM
R14L (designed binder) MTLQELLREEALRLAEAEAFRYALELLAEKFPEQKEYLLDLAEEIESQIRSLSGVDVEDVRKFLDKEWAWVKELLAEHPAELAEVEAARAARLAELRAEVEAKVAA | 0.956 nM
L41T (designed binder) MTLQELLREEALRRAEAEAFRYALELLAEKFPEQKEYLLDTAEEIESQIRSLSGVDVEDVRKFLDKEWAWVKELLAEHPAELAEVEAARAARLAELRAEVEAKVAA | 0.539 nM
K103M (designed binder) MTLQELLREEALRRAEAEAFRYALELLAEKFPEQKEYLLDLAEEIESQIRSLSGVDVEDVRKFLDKEWAWVKELLAEHPAELAEVEAARAARLAELRAEVEAMVAA | 0.718 nM
K72N (designed binder) MTLQELLREEALRRAEAEAFRYALELLAEKFPEQKEYLLDLAEEIESQIRSLSGVDVEDVRKFLDKEWAWVNELLAEHPAELAEVEAARAARLAELRAEVEAKVAA | 0.539 nM
R92G (designed binder) MTLQELLREEALRRAEAEAFRYALELLAEKFPEQKEYLLDLAEEIESQIRSLSGVDVEDVRKFLDKEWAWVKELLAEHPAELAEVEAARAAGLAELRAEVEAKVAA | 0.593 nM
